Where a chain is given by its changes, count along the chain named.
Legend:
Test in all cases: cleavage_in_vitro
[1] = test system: T1, OMNI-101 (metagenomic, unknown); conditions: TXTL; PAM NRRRNNNN
T1 sequence: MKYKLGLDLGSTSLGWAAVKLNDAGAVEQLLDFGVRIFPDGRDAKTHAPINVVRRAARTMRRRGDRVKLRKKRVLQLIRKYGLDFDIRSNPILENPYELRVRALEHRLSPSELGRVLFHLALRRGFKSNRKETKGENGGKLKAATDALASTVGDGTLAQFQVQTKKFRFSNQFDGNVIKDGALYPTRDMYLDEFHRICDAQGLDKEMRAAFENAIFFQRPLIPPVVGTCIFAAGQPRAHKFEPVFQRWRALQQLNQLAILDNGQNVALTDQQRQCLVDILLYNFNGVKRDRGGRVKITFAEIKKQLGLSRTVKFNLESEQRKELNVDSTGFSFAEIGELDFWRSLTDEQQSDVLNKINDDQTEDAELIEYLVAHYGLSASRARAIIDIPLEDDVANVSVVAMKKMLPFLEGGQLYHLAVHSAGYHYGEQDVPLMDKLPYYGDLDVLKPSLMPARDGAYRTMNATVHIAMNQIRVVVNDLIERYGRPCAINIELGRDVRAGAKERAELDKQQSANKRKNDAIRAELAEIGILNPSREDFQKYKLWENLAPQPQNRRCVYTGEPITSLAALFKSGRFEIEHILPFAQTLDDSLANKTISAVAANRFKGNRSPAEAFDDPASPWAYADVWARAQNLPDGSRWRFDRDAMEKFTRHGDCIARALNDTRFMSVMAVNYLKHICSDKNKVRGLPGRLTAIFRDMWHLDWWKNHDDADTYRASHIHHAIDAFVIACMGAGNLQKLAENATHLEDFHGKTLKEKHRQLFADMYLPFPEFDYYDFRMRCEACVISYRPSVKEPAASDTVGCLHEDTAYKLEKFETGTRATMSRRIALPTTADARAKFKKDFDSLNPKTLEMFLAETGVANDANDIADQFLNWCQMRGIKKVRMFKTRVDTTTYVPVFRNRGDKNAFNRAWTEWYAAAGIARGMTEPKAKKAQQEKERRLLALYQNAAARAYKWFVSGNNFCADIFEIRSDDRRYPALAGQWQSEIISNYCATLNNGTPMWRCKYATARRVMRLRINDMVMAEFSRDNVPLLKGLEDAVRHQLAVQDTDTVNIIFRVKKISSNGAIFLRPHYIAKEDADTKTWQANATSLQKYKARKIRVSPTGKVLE

[2] = test system: T2, OMNI-104 (metagenomic, unknown); conditions: TXTL; PAM NRRRNYCN
T2 sequence: T1 sequence with T151A, Q1084K

[3] = test system: T3, OMNI-105 (metagenomic, unknown); conditions: TXTL; PAM NRRRNNNN
T3 sequence: T1 sequence with T151A, T1080P

[4] = test system: T4, OMNI-90 (metagenomic, unknown); conditions: TXTL, PAM NNATTGYN
T4 sequence: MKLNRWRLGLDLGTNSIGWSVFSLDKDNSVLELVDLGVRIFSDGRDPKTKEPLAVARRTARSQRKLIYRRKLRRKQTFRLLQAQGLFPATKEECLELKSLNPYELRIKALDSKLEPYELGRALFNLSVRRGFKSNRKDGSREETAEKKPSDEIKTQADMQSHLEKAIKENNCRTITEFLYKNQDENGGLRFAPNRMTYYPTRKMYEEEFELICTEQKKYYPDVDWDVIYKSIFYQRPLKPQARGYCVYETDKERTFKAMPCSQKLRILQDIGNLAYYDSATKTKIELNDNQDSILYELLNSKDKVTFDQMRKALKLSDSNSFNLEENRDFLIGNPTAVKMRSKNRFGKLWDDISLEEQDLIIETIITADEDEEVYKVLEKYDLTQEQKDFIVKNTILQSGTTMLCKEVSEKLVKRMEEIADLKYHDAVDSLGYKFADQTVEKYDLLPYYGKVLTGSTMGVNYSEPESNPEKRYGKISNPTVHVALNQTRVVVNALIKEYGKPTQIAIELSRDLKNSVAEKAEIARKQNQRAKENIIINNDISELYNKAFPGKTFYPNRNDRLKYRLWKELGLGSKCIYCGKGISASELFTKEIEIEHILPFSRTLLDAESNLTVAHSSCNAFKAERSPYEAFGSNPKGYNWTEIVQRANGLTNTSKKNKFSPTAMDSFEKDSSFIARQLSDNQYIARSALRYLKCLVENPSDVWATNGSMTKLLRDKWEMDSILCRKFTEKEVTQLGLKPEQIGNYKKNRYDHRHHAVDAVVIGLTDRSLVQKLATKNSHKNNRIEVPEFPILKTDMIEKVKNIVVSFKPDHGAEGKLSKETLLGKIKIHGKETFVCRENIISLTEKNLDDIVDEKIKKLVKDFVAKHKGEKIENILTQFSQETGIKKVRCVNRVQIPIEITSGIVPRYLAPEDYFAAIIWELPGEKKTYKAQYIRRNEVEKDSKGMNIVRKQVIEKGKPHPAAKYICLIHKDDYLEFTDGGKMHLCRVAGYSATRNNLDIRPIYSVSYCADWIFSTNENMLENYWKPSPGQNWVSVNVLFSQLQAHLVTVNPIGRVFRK

Sequence	activity (1-depletion score) [1]	activity (1-depletion score) [2]	activity (1-depletion score) [3]	other results
GGAAGAGCAGAGCCUUGGUCUCGUUGCACCUAGACACCGAAAGGUGUCUUUGUGUUAAUAAGAACCUUUCUUUGGAAAGGAGUUCACCAUUUACAAACAGGCACUUCGGUGUCUGUUUUUUU / GGAAGAGCAGAGCCTTGGTCTCNNNNNNNN / NNNNNNNNGAGACCAAGGCTCTGCTCTTCC [T2 sgRNA 14 V1 ; T2 protospacer + 8N PAM library (pbPOS T2)]	0.97	0.98	0.94	
GGAAGAGCAGAGCCUUGGUCUCGUUGCACCUAGACACCGAGAAAUCGGUGUCUUUGUGUUAAUAAGAACCUUUCUUUGGAAAGGAGUUCACCAUUUACAAACAGGCACUUCGGUGUCUGUUUUUU / GGAAGAGCAGAGCCTTGGTCTCNNNNNNNN / NNNNNNNNGAGACCAAGGCTCTGCTCTTCC [T2 sgRNA 13 V1 ; T2 protospacer + 8N PAM library (pbPOS T2)]	0.98	0.92	1	
GGAAGAGCAGAGCCUUGGUCUCGUUGCACCUAGACGAAAGUCUUUGUGUUAAUAAGAACCUUUCUUUGGAAAGGAGUUCACCAUUUACAAACAGGCACUUCGGUGUCUGUUUUUU / GGAAGAGCAGAGCCTTGGTCTCNNNNNNNN / NNNNNNNNGAGACCAAGGCTCTGCTCTTCC [T2 sgRNA 11 V1 ; T2 protospacer + 8N PAM library (pbPOS T2)]	0.96	1	0.98	
GGAAGAGCAGAGCCUUGGUCUCGUUGCAGGUUGACCGGGAAAGCGGUCAACCUGCUAACAAGGAAACCUUUAGUUUCCGCAAAAUGCUUUUAUAUUCGUUGAGAUUUUUGCGUGAAUAUAGAUAGCACACAAUGCAAAGGGAAAGCUACGGCUUUCCCCCUUUUUUUU / GGAAGAGCAGAGCCTTGGTCTCNNNNNNNN / NNNNNNNNGAGACCAAGGCTCTGCTCTTCC [T2 sgRNA 1 V1 ; T2 protospacer + 8N PAM library (pbPOS T2)]				activity (1-depletion score) [4]: 0.95
GGAAGAGCAGAGCCUUGGUCUCGUUGCAGGUUGACCGGGAAAGCGGUCAACCUGCUAACAAGGAAACCUUUAGUUUCCGCAAUAUGCUUUAAUAUUCGUUGAGAUUAUUGCGUGAAUAUAGAUAGCACACAAUGCAAAGGGAAAGCUACGGCUUUCCCCCUUUUUUUU / GGAAGAGCAGAGCCTTGGTCTCNNNNNNNN / NNNNNNNNGAGACCAAGGCTCTGCTCTTCC [T2 sgRNA 1 V2 ; T2 protospacer + 8N PAM library (pbPOS T2)]				activity (1-depletion score) [4]: 0.94
GGAAGAGCAGAGCCUUGGUCUCGUUGCAGGUUGACCGGGAAAGCGGUCAACCUGCUAACAAGGAAACCUUUAGUUUCCGCAAUAUGCUUUAAUAUUCGUUGAGAUUAUUGCGUGAAUAUAGAUAGCACACAAUGCUUUUU / GGAAGAGCAGAGCCTTGGTCTCNNNNNNNN / NNNNNNNNGAGACCAAGGCTCTGCTCTTCC [T2 sgRNA 1 V3 ; T2 protospacer + 8N PAM library (pbPOS T2)]				activity (1-depletion score) ([4]; terminal hairpin deleted): 0.95
GGAAGAGCAGAGCCUUGGUCUCGUUGCAGGUUGACCGGGAAAGCGGUCAACCUGCUAACAAGGAAACCUUUAGUUUCCGCAAUAUGCUUUAAUAUUCGUUGAGAUUAUUGCGUGAAUAUAGAUUUUU / GGAAGAGCAGAGCCTTGGTCTCNNNNNNNN / NNNNNNNNGAGACCAAGGCTCTGCTCTTCC [T2 sgRNA 1 V4 ; T2 protospacer + 8N PAM library (pbPOS T2)]				activity (1-depletion score) ([4]; two last hairpins deleted): 0.96

Reference: US20240425885
